Bridge positions count the residues as written; N and C are the ends. Square brackets hold non-standard residues; d marks the D form. Ends that are not written are not given here. S5 = C=CCCC[C@](C)(N)C(=O)O; βAla = NCCC(=O)O
Key:
ICN1-CSL complex = ICN1-CSL complex (Homo sapiens, UniProt P46531+Q06330); settings: cited from earlier work
[1] = system: Notch target genes (HES1, MYC, DTX1); settings: incubated with human T-ALL cells; cited from earlier work
[2] = biological target: T1, Bio-sdnMAML1 binding to GST-RAMANK1-CSL (Homo sapiens, UniProt P46531+Q06330); test: ALPHAscreen NTC competition assay; settings: titration of unlabeled peptide (FIG. 2h)
T1 construct: RAMANK1 (residues 1761-2127) and GST-labeled RAMANK1; Human CSL bearing a C-terminal hexahistidine tag (residues 9-435); hexahistidine (His6) (C); made in house; host or cells: E. coli BL21(DE3) pLysS (proteins); solid-phase peptide synthesis (Bio-sdnMAML1)
T1 sequence (P46531 1760-2126): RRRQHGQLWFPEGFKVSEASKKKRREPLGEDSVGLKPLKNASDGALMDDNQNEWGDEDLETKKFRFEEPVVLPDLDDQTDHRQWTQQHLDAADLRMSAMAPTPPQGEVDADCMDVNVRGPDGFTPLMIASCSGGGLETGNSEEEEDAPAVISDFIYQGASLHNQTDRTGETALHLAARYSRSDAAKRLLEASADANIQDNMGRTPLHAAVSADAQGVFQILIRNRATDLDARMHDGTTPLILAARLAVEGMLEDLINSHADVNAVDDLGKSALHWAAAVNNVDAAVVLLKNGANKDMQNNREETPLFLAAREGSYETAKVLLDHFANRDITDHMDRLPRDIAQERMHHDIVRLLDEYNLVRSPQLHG
T1 sequence (Q06330 23-449): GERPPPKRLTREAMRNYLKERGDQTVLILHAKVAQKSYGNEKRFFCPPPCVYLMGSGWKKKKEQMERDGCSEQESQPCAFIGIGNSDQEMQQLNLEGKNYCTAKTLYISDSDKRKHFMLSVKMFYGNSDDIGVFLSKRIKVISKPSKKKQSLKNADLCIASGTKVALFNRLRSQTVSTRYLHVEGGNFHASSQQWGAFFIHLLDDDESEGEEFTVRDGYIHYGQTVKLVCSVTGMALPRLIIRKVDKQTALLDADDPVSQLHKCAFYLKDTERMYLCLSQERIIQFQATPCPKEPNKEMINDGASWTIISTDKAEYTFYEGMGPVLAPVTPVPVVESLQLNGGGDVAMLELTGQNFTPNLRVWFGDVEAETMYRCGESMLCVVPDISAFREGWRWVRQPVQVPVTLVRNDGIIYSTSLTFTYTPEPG
Excerpt: The biophysics of NTC assembly has been studied using relatively low-throughput assays including electrophoretic-mobility shift assays^24, isothermal titration calorimetry^49, and various immunoprecipitation strategies. More recently, Del Bianco et al. reported the use of a FRET-based system measuring the proximity of a donor fluorophore-labeled ANK protein to an acceptor-labeled oligonucleotide upon NTC assembly, which allowed determination of relative equilibrium constants for the entire complex^45. We also reported the use of surface plasmon resonance (SPR) and fluorescence polarization assays measuring the association of NTC components with each other and with stapled peptides^37. To date however, there are no high-throughput assays reported that quantitatively measure dnMAML1-NOTCH-CSL complex formation. […] The ALPHAscreen technology (ALPHA meaning amplified luminescence proximity homogenous assay) employs functionalized beads approximately 200 nm in diameter to detect the association of cognate binding partners in solution^50,51. […] The use of microwave-assisted peptide synthesis and a slightly altered SPPS protocol readily afforded the biotinylated sdnMAML1 peptide (bio-sdnMAML1, and others with alternative N-terminal modifications) at greater than 95% purity by LCMS analysis (FIG. 2b, FIG. 7). […]

Chain of ICN1-CSL complex (P46531 1754-2555 limits assumed): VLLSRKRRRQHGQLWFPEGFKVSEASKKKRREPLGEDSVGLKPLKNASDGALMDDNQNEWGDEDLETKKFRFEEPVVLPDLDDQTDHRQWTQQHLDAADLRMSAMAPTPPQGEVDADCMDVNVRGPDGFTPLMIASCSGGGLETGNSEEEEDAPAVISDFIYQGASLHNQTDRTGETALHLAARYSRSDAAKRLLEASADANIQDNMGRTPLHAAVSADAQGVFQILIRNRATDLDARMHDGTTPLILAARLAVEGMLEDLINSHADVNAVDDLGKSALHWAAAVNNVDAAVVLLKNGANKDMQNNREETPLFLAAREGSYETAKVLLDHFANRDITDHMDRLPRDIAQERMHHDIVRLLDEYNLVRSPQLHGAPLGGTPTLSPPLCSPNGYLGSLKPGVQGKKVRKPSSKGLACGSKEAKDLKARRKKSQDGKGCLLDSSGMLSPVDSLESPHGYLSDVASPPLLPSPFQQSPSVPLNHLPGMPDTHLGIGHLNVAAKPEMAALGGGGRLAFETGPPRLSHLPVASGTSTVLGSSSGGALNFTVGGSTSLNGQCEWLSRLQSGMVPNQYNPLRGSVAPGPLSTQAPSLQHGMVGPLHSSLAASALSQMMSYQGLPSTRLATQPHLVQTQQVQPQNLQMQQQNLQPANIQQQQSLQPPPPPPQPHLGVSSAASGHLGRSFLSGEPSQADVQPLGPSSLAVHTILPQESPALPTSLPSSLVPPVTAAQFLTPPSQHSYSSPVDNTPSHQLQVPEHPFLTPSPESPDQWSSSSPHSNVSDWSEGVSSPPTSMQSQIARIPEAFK
Chain of ICN1-CSL complex (Q06330 whole entry): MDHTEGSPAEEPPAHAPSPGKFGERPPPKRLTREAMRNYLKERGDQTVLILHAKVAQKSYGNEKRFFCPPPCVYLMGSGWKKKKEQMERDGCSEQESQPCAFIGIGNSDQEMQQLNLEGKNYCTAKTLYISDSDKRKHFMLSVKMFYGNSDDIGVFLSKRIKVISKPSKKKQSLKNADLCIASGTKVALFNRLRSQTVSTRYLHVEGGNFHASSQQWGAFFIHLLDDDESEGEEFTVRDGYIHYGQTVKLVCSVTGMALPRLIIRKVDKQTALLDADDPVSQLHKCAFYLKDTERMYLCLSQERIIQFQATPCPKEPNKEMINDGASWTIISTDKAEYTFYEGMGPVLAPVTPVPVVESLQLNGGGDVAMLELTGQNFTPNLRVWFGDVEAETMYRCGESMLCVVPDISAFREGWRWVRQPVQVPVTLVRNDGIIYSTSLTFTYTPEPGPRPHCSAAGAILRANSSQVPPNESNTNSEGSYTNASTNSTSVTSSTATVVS

Row | Substance | binding to ICN1-CSL complex and competition with MAML1 (ICN1-CSL complex) | expression of canonical Notch target genes [1] | dissociation of pre-incubated bio-sdnMAML1-GSTRAMANK1-CSL complex [2]
1 | SAHM1: stapled MAML1 E21-T36 peptide with E28 and R32 replaced by i→i+4 ligated α,α-disubstituted S5 amino acids; previously reported (Ac-W[βAla]ERLRRRI[S5]LCR[S5]HHST; staple 10-14) | specifically bind the ICN1-CSL complex and competitively inhibit binding of recombinant dnMAML1 as well as full-length MAML1 | inhibit the expression of a panel of canonical Notch target genes | 
2 | Ac-sdnMAML1: non-labeled competitor dnMAML1 peptide capped with an acetylated beta-alanine spacer ({Ac-βAla}-HSAVMERLRRRIELCRRHHSTCEARYEAVSPERLELERQHTFALHQRCIQAKAKR; staple (positions not given here); also: stapled, staple positions not given here) |  |  | dose-dependent dissociation of the complex
